Positions of bridges follow the written chain, without caps; N, C: chain ends. Non-standard residues stand in square brackets, D forms with d. Primed or numbered codes have the meaning given here. *: point of attachment. (pyridine)3,5‑diyldimethylene = -CH2-(pyridine-3,5-diyl)-CH2- bridge between the two Cys sulfurs; (3,3-oxetanediyl)dimethylene = -CH2-(oxetane-3,3-diyl)-CH2- bridge between the two Cys sulfurs; (1,2-phenylenediyl)dimethylene = -CH2-(1,2-phenylene)-CH2- bridge between the two Cys sulfurs; Pro(4S-NH2) = N[C@@H]1CN[C@H](C(=O)O)C1; Stearoyl = CCCCCCCCCCCCCCCCCC(=O)*; Palmitoyl = CCCCCCCCCCCCCCCC(=O)*; Nonadecanoyl′ = not defined here; Myristoyl = CCCCCCCCCCCCCC(=O)*; Thz = O=C(O)[C@@H]1CSCN1; Dodecyl = CCCCCCCCCCCC*; βAla = NCCC(=O)O
Biological target: T1, Keap1-Maltose Binding Protein (MBP tag) (UniProt Q14145 321-609, limits assumed)
T1 construct: also called Keap1-MBP; Keap-MBP
Experiment: TR-FRET competition vs ETGE-biotin; grade band per paragraph 615

T1 sequence (Q14145 321-609 limits assumed): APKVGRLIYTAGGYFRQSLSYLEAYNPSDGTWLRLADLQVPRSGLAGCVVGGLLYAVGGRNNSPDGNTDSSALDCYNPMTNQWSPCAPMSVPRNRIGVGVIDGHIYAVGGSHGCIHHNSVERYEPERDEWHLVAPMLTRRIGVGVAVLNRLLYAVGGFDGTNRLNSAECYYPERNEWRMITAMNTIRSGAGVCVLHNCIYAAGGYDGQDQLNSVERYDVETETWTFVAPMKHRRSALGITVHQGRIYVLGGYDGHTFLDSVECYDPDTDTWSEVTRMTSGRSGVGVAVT

| Binder | IC50 |
| --- | --- |
| cyclo([Pro(4S-NH2)](Arachidyl)QCD[Thz]ETGECL[dP]) (linker 3-10 via (3,3-oxetanediyl)dimethylene) | < 1 nM |
| cyclo([Pro(4S-NH2)](Dodecyl)QCDPETGECL[dP]) (linker 3-10 via (1,2-phenylenediyl)dimethylene) | < 1 nM |
| cyclo([Pro(4S-NH2)](Ac)QCDPETGECL[dP]) (linker 3-10 via (1,2-phenylenediyl)dimethylene) | < 1 nM |
| cyclo([Pro(4S-NH2)](Nonadecanoyl′)QCDPETGECL[dP]) (linker 3-10 via (1,2-phenylenediyl)dimethylene) | < 1 nM |
| cyclo([Pro(4S-NH2)](Myristoyl)QCDPETGECL[dP]) (linker 3-10 via (1,2-phenylenediyl)dimethylene) | < 1 nM |
| cyclo([Pro(4S-NH2)](Stearoyl)QCDPETGECL[dP]) (linker 3-10 via (1,3-phenylenediyl)dimethylene) | < 1 nM |
| cyclo(LQCDEETGECLP) (linker 3-10 via (1,3-phenylenediyl)dimethylene) [{[&1Leu-Gln-Cys(&2)-Asp-Glu-Glu-Thr-Gly-Glu-Cys(&3)-Leu-Pro&1][&2(1,3-phenylenediyl)dimethylene&3]}] | < 1 nM |
| cyclo([Pro(4S-NH2)](Palmitoyl)QCDPETGECL[dP]) (linker 3-10 via (1,2-phenylenediyl)dimethylene) | < 1 nM |
| cyclo([Pro(4S-NH2)](arachidyl)QCDPETGECL[dP]) (linker 3-10 via (1,2-phenylenediyl)dimethylene) | < 1 nM |
| cyclo([Pro(4S-NH2)](Arachidyl)QCD[Thz]ETGECL[dP]) (linker 3-10 via (1,2-phenylenediyl)dimethylene) | < 1 nM |
| cyclo([Pro(4S-NH2)](Stearoyl)QCD[Thz]ETGECL[dP]) (linker 3-10 via (3,3-oxetanediyl)dimethylene) | < 1 nM |
| cyclo([Pro(4S-NH2)](Stearoyl)QCD[Thz]ETGECL[dP]) (linker 3-10 via (1,2-phenylenediyl)dimethylene) | < 1 nM |
| cyclo([Pro(4S-NH2)](Arachidyl)QCDPETGECL[dP]) (linker 3-10 via (3,3-oxetanediyl)dimethylene) | < 1 nM |
| cyclo([Pro(4S-NH2)](Stearoyl)QCDPETGECL[dP]) (linker 3-10 via (1,2-phenylenediyl)dimethylene) | < 1 nM |
| cyclo([Pro(4S-NH2)](Stearoyl)QCDRETGECL[dP]) (linker 3-10 via (1,2-phenylenediyl)dimethylene) | < 1 nM |
| cyclo(K(Stearoyl)QCDPETGECL[dP]) (linker 3-10 via (1,2-phenylenediyl)dimethylene) | < 1 nM |
| cyclo([Pro(4S-NH2)](behenyl)QCDPETGECL[dP]) (linker 3-10 via (1,2-phenylenediyl)dimethylene) | < 1 nM |
| cyclo([Pro(4S-NH2)](Stearoyl)QCD[Thz]ETGECL[dP]) (linker 3-10 via (1,3-phenylenediyl)dimethylene) | < 1 nM |

Second part, the binder after the results:

| IC50 | Binder |
| --- | --- |
| < 1 nM | Stearoyl-[βAla]LLCDPETGECLL-NH2 (linker 4-11 via (3,3-oxetanediyl)dimethylene) |
| < 1 nM | Stearoyl-[βAla]LQCDPETGECLP-NH2 (linker 4-11 via (pyridine)3,5‑diyldimethylene) |
| < 1 nM | cyclo([Pro(4S-NH2)](α‑linolenyl)QCDPETGECL[dP]) (linker 3-10 via (1,2-phenylenediyl)dimethylene) |
| < 1 nM | Stearoyl-KQCDPETGECL[dP] (lactam 1-C; linker 3-10 via (1,2-phenylenediyl)dimethylene) |
| < 1 nM | Stearoyl-[βAla]KQCDPETGECLP-NH2 (linker 4-11 via (1,2-phenylenediyl)dimethylene) |
| < 1 nM | Stearoyl-[βAla]KKCDPETGECLP-NH2 (linker 4-11 via (1,2-phenylenediyl)dimethylene) |
| < 1 nM | cyclo([Pro(4S-NH2)](oleyl)QCDPETGECL[dP]) (linker 3-10 via (1,2-phenylenediyl)dimethylene) |
| < 1 nM | H-LQCDAETGECLP-OH (linker 3-10 via (1,3-phenylenediyl)dimethylene) [{[H-Leu-Gln-Cys(&1)-Asp-Ala-Glu-Thr-Gly-Glu-Cys(&2)-Leu-Pro-OH][&1(1,3-phenylenediyl)dimethylene&2]}] |
